From paper PMC6995612

Target: Firefly Luciferase, heat-aggregated [luciferase: P08659]
Assay: co-sedimentation; 1.5 μM ClpG-DWB with 2 μM aggregated Luciferase in buffer A (50 mM Tris pH 7.5, 50 mM KCl, 10 mM MgCl2, 2 mM DTT), 2 mM ATP, 25 °C, 10 min; 1 μM DnaK with 0.2 μM DnaJ added to selected reactions; centrifugation at 13,000 rpm, pellet washed once; SDS-PAGE, Coomassie, ImageJ; control without aggregated Luciferase

## P. aeruginosa ClpGGI-E383A/E732A (enzyme)
  fold reduction of binding on addition of DnaK (with DnaJ): 1.86 fold
